Experiments:
[1] = molecular target: the molecule itself; assay: SEC-MALS
[2] = molecular target: the molecule itself; assay: AUC + SEC-MALS

| Protein | stoichiometry N [1] | stoichiometry N [2] |
| --- | --- | --- |
| ΔRBD2-CDTb (residues 212-751), CDTb construct that lacks the C-terminal receptor binding domain 2 (domain or fragment) SDWEDEDLDTDNDNIPDSYERNGYTIKDLIAVKWEDSFAEQGYKKYVSNYLESNTAGDPYTDYEKASGSFDKAIKTEARDPLVAAYPIVGVGMEKLIISTNEHASTDQGKTVSRATTNSKTESNTAGVSVNVGYQNGFTANVTTNYSHTTDNSTAVQDSNGESWNTGLSINKGESAYINANVRYYNTGTAPMYKVTPTTNLVLDGDTLSTIKAQENQIGNNLSPGDTYPKKGLSPLALNTMDQFSSRLIPINYDQLKKLDAGKQIKLETTQVSGNFGTKNSSGQIVTEGNSWSDYISQIDSISASIILDTENESYERRVTAKNLQDPEDKTPELTIGEAIEKAFGATKKDGLLYFNDIPIDESCVELIFDDNTANKIKDSLKTLSDKKIYNVKLERGMNILIKTPTYFTNFDDYNNYPSTWSNVNTTNQDGLQGSANKLNGETKIKIPMSELKPYKRYVFSGYSKDPLTSNSIIVKIKAKEEKTDYLVPEQGYTKFSYEFETTEKDSSNIEITLIGSGTTYLDNLSITELNSTPEILDEP | 7 |  |
| activated CDTb (aCDTb; residues 212-876), cell-binding and pore-forming component of the C. difficile binary toxin (CDT) (domain or fragment) SDWEDEDLDTDNDNIPDSYERNGYTIKDLIAVKWEDSFAEQGYKKYVSNYLESNTAGDPYTDYEKASGSFDKAIKTEARDPLVAAYPIVGVGMEKLIISTNEHASTDQGKTVSRATTNSKTESNTAGVSVNVGYQNGFTANVTTNYSHTTDNSTAVQDSNGESWNTGLSINKGESAYINANVRYYNTGTAPMYKVTPTTNLVLDGDTLSTIKAQENQIGNNLSPGDTYPKKGLSPLALNTMDQFSSRLIPINYDQLKKLDAGKQIKLETTQVSGNFGTKNSSGQIVTEGNSWSDYISQIDSISASIILDTENESYERRVTAKNLQDPEDKTPELTIGEAIEKAFGATKKDGLLYFNDIPIDESCVELIFDDNTANKIKDSLKTLSDKKIYNVKLERGMNILIKTPTYFTNFDDYNNYPSTWSNVNTTNQDGLQGSANKLNGETKIKIPMSELKPYKRYVFSGYSKDPLTSNSIIVKIKAKEEKTDYLVPEQGYTKFSYEFETTEKDSSNIEITLIGSGTTYLDNLSITELNSTPEILDEPEVKIPTDQEIMDAHKIYFADLNFNPSTGNTYINGMYFAPTQTNKEALDYIQKYRVEATLQYSGFKDIGTKDKEMRNYLGDPNQPKTNYVNLRSYFTGGENIMTYKKLRIYAITPDDRELLVLSVD |  | 14 |
